B1: Azoarcus group I ribozyme (parent)
chain: GUGCCUUGCGCCGGGAAACCACGCAAGGGAUGGUGUCAAAUUCGGCGAAACCUAAGCGCCCGCCCGGGCGUAUGGCAACGCCGAGCCAAGCUUCGGCGCCUGCGCCGAUGAAGGUGUAGAGACUAGACGGCACCCACCUAAGGCAAACGCUAUGGUGAAGGCAUAGUCCAGGGAGUGGCGAAAGUCACACAAACCGG

Variants of: B1
Test: reverse-splicing fitness (ratio to wild type); higher = more active; in vitro selection; Mg2+ level not given
How it was run: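 An in vitro group I ribozyme library with randomized positions was T7-transcribed and gel-purified. In triplicate, 10 pmol RNA in EPPS pH 7.5 was reacted with 50 pmoles of a 30-nt RNA substrate for 1 h at 37 °C across several added MgCl2 levels (1–48 mM), then stopped with EDTA. Products were reverse transcribed from a substrate-complementary primer, PCR-amplified and sequenced (HiSeq 4000). Fitness is a variant's read proportion after selection over that before, normalised to wild type.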
With C82A A111G A120G A145C C169G the reverse-splicing fitness was 0.0122.
Variant C82A A111G A120G A145C C169G U176A has a reverse-splicing fitness of 0.0248.
C82A A111G A120G A145C C169G U176C gave a reverse-splicing fitness of 0.0178.
C82A A111G A120G A145C C169G U176G gave a reverse-splicing fitness of 0.0046.
Variant C82A A111G A120G A145C C169U has a reverse-splicing fitness of 0.0103.
For C82A A111G A120G A145C C169U U176A, the reverse-splicing fitness was 0.0193.
C82A A111G A120G A145C C169U U176C gave a reverse-splicing fitness of 0.0129.
C82A A111G A120G A145C C169U U176G gave a reverse-splicing fitness of 0.00388.
For C82A A111G A120G A145C U176A, the reverse-splicing fitness was 0.0113.
For C82A A111G A120G A145C U176C, the reverse-splicing fitness was 0.0105.
Variant C82A A111G A120G A145C U176G has a reverse-splicing fitness of 0.00516.
For C82A A111G A120G A145G, the reverse-splicing fitness was 0.0165.
In the case of C82A A111G A120G A145G C150A, the reverse-splicing fitness is reported as 0.00972.
In the case of C82A A111G A120G A145G C150A C169A, the reverse-splicing fitness is reported as 0.0103.
C82A A111G A120G A145G C150A C169A U176A showed a reverse-splicing fitness of 0.0205.
Work on C82A A111G A120G A145G C150A C169A U176C yielded a reverse-splicing fitness of 0.0218.
C82A A111G A120G A145G C150A C169A U176G gave a reverse-splicing fitness of 0.00687.
C82A A111G A120G A145G C150A C169G gave a reverse-splicing fitness of 0.00854.
With C82A A111G A120G A145G C150A C169G U176A the reverse-splicing fitness was 0.0194.
Work on C82A A111G A120G A145G C150A C169G U176C yielded a reverse-splicing fitness of 0.0239.
Work on C82A A111G A120G A145G C150A C169G U176G yielded a reverse-splicing fitness of 0.00592.
In the case of C82A A111G A120G A145G C150A C169U, the reverse-splicing fitness is reported as 0.00938.
Work on C82A A111G A120G A145G C150A C169U U176A yielded a reverse-splicing fitness of 0.0192.
In the case of C82A A111G A120G A145G C150A C169U U176C, the reverse-splicing fitness is reported as 0.0184.
Work on C82A A111G A120G A145G C150A C169U U176G yielded a reverse-splicing fitness of 0.00673.
With C82A A111G A120G A145G C150A U176A the reverse-splicing fitness was 0.0103.
Work on C82A A111G A120G A145G C150A U176C yielded a reverse-splicing fitness of 0.0203.
Work on C82A A111G A120G A145G C150A U176G yielded a reverse-splicing fitness of 0.00899.
C82A A111G A120G A145G C150G gave a reverse-splicing fitness of 0.00769.
Work on C82A A111G A120G A145G C150G C169A yielded a reverse-splicing fitness of 0.00897.
With C82A A111G A120G A145G C150G C169A U176A the reverse-splicing fitness was 0.0139.
For C82A A111G A120G A145G C150G C169A U176C, the reverse-splicing fitness was 0.0131.
C82A A111G A120G A145G C150G C169A U176G showed a reverse-splicing fitness of 0.00875.
With C82A A111G A120G A145G C150G C169G the reverse-splicing fitness was 0.00754.
Variant C82A A111G A120G A145G C150G C169G U176A has a reverse-splicing fitness of 0.0101.
Work on C82A A111G A120G A145G C150G C169G U176C yielded a reverse-splicing fitness of 0.0114.
C82A A111G A120G A145G C150G C169G U176G showed a reverse-splicing fitness of 0.00614.
With C82A A111G A120G A145G C150G C169U the reverse-splicing fitness was 0.0091.
C82A A111G A120G A145G C150G C169U U176A gave a reverse-splicing fitness of 0.0118.
Variant C82A A111G A120G A145G C150G C169U U176C has a reverse-splicing fitness of 0.0133.
In the case of C82A A111G A120G A145G C150G C169U U176G, the reverse-splicing fitness is reported as 0.00793.
Variant C82A A111G A120G A145G C150G U176A has a reverse-splicing fitness of 0.00684.
C82A A111G A120G A145G C150G U176C showed a reverse-splicing fitness of 0.00999.
In the case of C82A A111G A120G A145G C150G U176G, the reverse-splicing fitness is reported as 0.00568.
C82A A111G A120G A145G C150U gave a reverse-splicing fitness of 0.0145.
C82A A111G A120G A145G C150U C169A showed a reverse-splicing fitness of 0.0119.
C82A A111G A120G A145G C150U C169A U176A gave a reverse-splicing fitness of 0.016.
In the case of C82A A111G A120G A145G C150U C169A U176C, the reverse-splicing fitness is reported as 0.0174.
In the case of C82A A111G A120G A145G C150U C169A U176G, the reverse-splicing fitness is reported as 0.0063.
Variant C82A A111G A120G A145G C150U C169G has a reverse-splicing fitness of 0.0113.
With C82A A111G A120G A145G C150U C169G U176A the reverse-splicing fitness was 0.0157.
For C82A A111G A120G A145G C150U C169G U176C, the reverse-splicing fitness was 0.0176.
C82A A111G A120G A145G C150U C169G U176G gave a reverse-splicing fitness of 0.00529.
Work on C82A A111G A120G A145G C150U C169U yielded a reverse-splicing fitness of 0.011.
Variant C82A A111G A120G A145G C150U C169U U176A has a reverse-splicing fitness of 0.0182.
Work on C82A A111G A120G A145G C150U C169U U176C yielded a reverse-splicing fitness of 0.0165.
C82A A111G A120G A145G C150U C169U U176G showed a reverse-splicing fitness of 0.00632.
Variant C82A A111G A120G A145G C150U U176A has a reverse-splicing fitness of 0.00945.
With C82A A111G A120G A145G C150U U176C the reverse-splicing fitness was 0.0182.
In the case of C82A A111G A120G A145G C150U U176G, the reverse-splicing fitness is reported as 0.00788.
In the case of C82A A111G A120G A145G C169A, the reverse-splicing fitness is reported as 0.0101.
In the case of C82A A111G A120G A145G C169A U176A, the reverse-splicing fitness is reported as 0.0226.
In the case of C82A A111G A120G A145G C169A U176C, the reverse-splicing fitness is reported as 0.0254.
With C82A A111G A120G A145G C169A U176G the reverse-splicing fitness was 0.00461.
In the case of C82A A111G A120G A145G C169G, the reverse-splicing fitness is reported as 0.0122.
C82A A111G A120G A145G C169G U176A gave a reverse-splicing fitness of 0.0204.
Work on C82A A111G A120G A145G C169G U176C yielded a reverse-splicing fitness of 0.0276.
With C82A A111G A120G A145G C169G U176G the reverse-splicing fitness was 0.00435.
Variant C82A A111G A120G A145G C169U has a reverse-splicing fitness of 0.0111.
Work on C82A A111G A120G A145G C169U U176A yielded a reverse-splicing fitness of 0.019.
Variant C82A A111G A120G A145G C169U U176C has a reverse-splicing fitness of 0.0173.
C82A A111G A120G A145G C169U U176G gave a reverse-splicing fitness of 0.00492.
C82A A111G A120G A145G U176A showed a reverse-splicing fitness of 0.0128.
C82A A111G A120G A145G U176C showed a reverse-splicing fitness of 0.0205.
Variant C82A A111G A120G A145G U176G has a reverse-splicing fitness of 0.00638.
Work on C82A A111G A120G A145U yielded a reverse-splicing fitness of 0.015.
C82A A111G A120G A145U C150A gave a reverse-splicing fitness of 0.00927.
C82A A111G A120G A145U C150A C169A showed a reverse-splicing fitness of 0.00837.
C82A A111G A120G A145U C150A C169A U176A showed a reverse-splicing fitness of 0.0161.
C82A A111G A120G A145U C150A C169A U176C gave a reverse-splicing fitness of 0.0121.
C82A A111G A120G A145U C150A C169A U176G showed a reverse-splicing fitness of 0.00585.
C82A A111G A120G A145U C150A C169G gave a reverse-splicing fitness of 0.00871.
In the case of C82A A111G A120G A145U C150A C169G U176A, the reverse-splicing fitness is reported as 0.0145.
